Data taken from publication PMC12853182, “Dynamic acetylation of a conserved lysine impacts glycerol kinase activity and abundance in the haloarchaeon Haloferax volcanii” (The Journal of Biological Chemistry, 2025).

Biological target: the molecule itself
Test: SEC; Superdex 200 HR 10/300 GL, 50 mM HEPES pH 7.5, 2 M NaCl, 1 mM DTT, without glycerol; His-HvGK from cells grown in ATCC, GluMM or FruMM; mass by standard curve

B1: N-terminally His-tagged Haloferax volcanii glycerol kinase (His-HvGK), wildtype, purified from H. volcanii (enzyme, UniProt D4GYI5 1-510, looked up)
chain: MSGETYVGAIDQGTTGTRFMVFDHDGKVVANAYEKHEQIYPEPGWVEHDANEIWDNTKQVIDAALSSAGLDAEQLEAIGITNQRETTLVWDRETGQPIHNAIVWQDRRTTDRIETLEAEGKTDDVRAKTGLEPDAYFSATKAEWLLDNSDPIKLQRSRPEDIRDRAADGELAFGTIDTWLIYNLTGNHITDVTNASRTMLFNIHDMEWDDELLDEFNVPRELLPEVRPSSDDDYYGTTDADGFLGAEVPVAGALGDQQAALFGQTCFDAGDAKNTYGTGSFMLMNTGDEAVMSEHGLLTTVGFQRSGEPVQYALEGSIFITGAAIEWLEDMTLIDNAAESEKLARSVESTDGVYFVPAFTGLGAPHWDQRARGTIVGMTRGTRREHIVRATLESIAFQTRDVAEAMESDSEIDLSSLRVDGGAVKNNFLCQLQSNILDTEIVRPQVDETTALGAAYAAGLAVGYWETLDELRENWQVDREFAPKDPQNVEHRYGRWKEAVDRSLDWAREE
modifications: acetyl-lysine at K153, partial occupancy by AQUA-MS (50% in FruMM, 33% in ATCC rich medium, 17% in GluMM)
notes: Glycerol kinase (GlpK) of Haloferax volcanii, UniProt D4GYI5, gene hvo_1541; theoretical molecular weight 56.7 kDa monomer; The glpK gene was amplified and cloned into a pJAM503 backbone modified for an N-terminal His-tag fusion (pJAM4351); also called His-HvGK wt; HvGKHv; source: H. volcanii, expressed from a plasmid, cells grown in ATCC 974 rich medium, GluMM or FruMM; purified (Ni-NTA); not …
stoichiometry N: 2
